Assay [1] has as its target T1, recombinant human ATX beta isoform with N-terminal purification tag (human, UniProt Q13822 49-863). Description: ELISA, Fab-His captured by anti-Fd, 5 nM biotinylated human ATX beta. The protocol:
(§1) Fabs were captured on black MaxiSorp plates (Nunc, Cat. No. 437111) coated with 1 μg/ml sheep anti-human Fd (CH1) antibody (The Binding Site, Cat. No. PC075). Plates were washed and biotinylated human ATX was added to the captured Fabs at 5 nM. Incubation was carried out for 1 hour at room temperature with gentle shaking. Plates were washed, SA-HRP (Invitrogen, Cat. No. 43-4323) was added and chemiluminescent detection carried out.
(§2) Clones with binding above background were sequenced and unique clones identified. […] These clones were identified with binding signal to human ATX at least 6-fold above the background. Table 3 lists the identifier for VH and VL (Peptide ID) and the combination of both (Fab ID) sorted by the Fab ELISA binding data.

Assay [2] addresses T1, recombinant human ATX beta isoform with …. As to the kind of experiment: Fab-His ELISA. On the procedure: as §1, §2
For orientation: An ELISA detects its analyte on a solid surface through an enzyme-linked reagent.

The record followed here is patent US20150087812A1 (Janssen / Centocor, published 2015).

A value given as a limit tells only on which side of the number the result lay.

B1: Fab F33 (VH H24, VL L35) (Fab, V domains shown)
VH: not shown
VL: DIQMTQSPSSLSASVGDRVTITCRASQSIHNWLNWYQQKPGKAPKLLIYAASSLQSGVPSRFSGSGSGTDFTLTISSLQPEDFATYYCQQSYSTPLTFGQGTKVEIK
notes: Soluble Fab-His; converted to mAb B15; the Fab's H24 may differ in FR1
For the molecule B1, in assay [1], the “Fab Binding” value was 1.1e+06 relative chemiluminescence units. For the same molecule, the fold above background in assay [2] was at least 6 fold.

B2: Fab F16 (VH H10, VL L13) (Fab, V domains shown)
VH: EVQLVQSGAEVKKPGESLKISCKGSGYSFTSYWIGWVRQMPGKGLEWMGIIYPGDSDTRYSPSFQGQVTISADKSISTAYLQWSSLKASDTAMYYCARGLADFWYFDYWGQGTLVTVSS
VL: DIQMTQSPSSLSASVGDRVTITCRASQSIDVWLNWYQQKPGKAPKLLIYAASSLQSGVPSRFSGSGSGTDFTLTISSLQPEDFATYYCQQSYSTPLTFGQGTKVEIK
notes: Soluble Fab-His; converted to mAb B2
For B2, in assay [1], the “Fab Binding” value was 3.9e+06 relative chemiluminescence units. Also, in assay [2], the fold above background was at least 6 fold.

B3: Fab F116 (VH H108, VL L100) (Fab, V domains shown)
VH: QVQLVQSGAEVKKPGSSVKVSCKASGGTFSSYAISWVRQAPGQGLEWMGGIIPIFGTANYAQKFQGRVTITADESTSTAYMELSSLRSEDTAVYYCARSDLNNVSTVLDYWGQGTLVTVSS
VL: DIQMTQSPSSLSASVGDRVTITCRASQSIGKVLNWYQQKPGKAPKLLIYGASSLQSGVPSRFSGSGSGTDFTLTISSLQPEDFATYYCQQPISTPLTFGQGTKVEIK
notes: Soluble Fab-His
For B3, the “Fab Binding” value in assay [1] was 1.9e+06 relative chemiluminescence units. In assay [2], the fold above background was at least 6 fold.

B4: Fab F54 (VH H44, VL IFWL195) (Fab, V domains shown)
VH: not shown
VL: DIQMTQSPSSLSASVGDRVTITCRASQSIANWLNWYQQKPGKAPKLLIYAASSLQSGVPSRFSGSGSGTDFTLTISSLQPEDFATYYCQQSYSTPLTFGQGTKVEIK
notes: Soluble Fab-His; converted to mAb B17; the Fab's H44 may differ in FR1
Consider B4, for which the “Fab Binding” value in assay [1] was 980000 relative chemiluminescence units. Further, in assay [2], the fold above background is at least 6 fold.

B5: Fab F100 (VH H93, VL PH9L1) (Fab, V domains shown)
VH: QVQLVQSGAEVKKPGSSVKVSCKASGGTFSSYAISWVRQAPGQGLEWMGGIIPIFGNTNYAQKFQGRVTITADESTSTAYMELSSLRSEDTAVYYCARHYLPDATLDYWGQGTLVTVSS
VL: not shown
notes: Soluble Fab-His
Regarding B5, the “Fab Binding” value in assay [1] was 1.9e+06 relative chemiluminescence units. In addition, the fold above background in assay [2] was at least 6 fold.

B6: Fab F105 (VH H97, VL L93) (Fab, V domains shown)
VH: QVQLVQSGAEVKKPGSSVKVSCKASGGTFSSYGISWVRQAPGQGLEWMGGIIPIFGTANYAQKFQGRVTITADESTSTAYMELSSLRSEDTAVYYCARGDDNEVIYHLDYWGQGTLVTVSS
VL: EIVLTQSPGTLSLSPGERATLSCRASQSVAKSDLAWYQQKPGQAPRLLIYTASSRATGIPDRFSGSGSGTDFTLTISRLEPEDFAVYYCQQDYGYPLTFGQGTKVEIK
notes: Soluble Fab-His
On to B6, for which the “Fab Binding” value in assay [1] was 970000 relative chemiluminescence units. Besides, the fold above background in assay [2] was at least 6 fold.

B7: Fab F130 (VH H129, VL L113) (Fab, V domains shown)
VH: QVQLVQSGAEVKKPGSSVKVSCKASGGTFSSYAISWVRQAPGQGLEWMGGIIPIFGTANYAQKFQGRVTITADESTSTAYMELSSLRSEDTAVYYCARDHGYAYYSAFDYWGQGTLVTVSS
VL: EIVLTQSPGTLSLSPGERATLSCRASQSVSSSYLAWYQQKPGQAPRLLIYGASSRATGIPDRFSGSGSGTDFTLTISRLEPEDFAVYYCQQSSRDPWTFGQGTKVEIK
notes: Soluble Fab-His
As to B7, the “Fab Binding” value in assay [1] is 2.2e+06 relative chemiluminescence units. Also, the fold above background in assay [2] was at least 6 fold.

B8: Fab F126 (VH H123, VL L110) (Fab, V domains shown)
VH: QVQLVQSGAEVKKPGSSVKVSCKASGGTFSSYAISWVRQAPGQGLEWMGGIIPIFGTANYAQKFQGRVTITADESTSTAYMELSSLRSEDTAVYYCARDRYYFTVLDYWGQGTLVTVSS
VL: EIVLTQSPGTLSLSPGERATLSCRASQSVSSSYLAWYQQKPGQAPRLLIYGASSRATGIPDRFSGSGSGTDFTLTISRLEPEDFAVYYCQQATAFPLTFGQGTKVEIK
notes: Soluble Fab-His; converted to mAb B12
In the case of B8, in assay [1], the “Fab Binding” value is 2.4e+06 relative chemiluminescence units. Moreover, the fold above background in assay [2] is at least 6 fold.

B9: Fab F135 (VH H138, VL L118) (Fab, V domains shown)
VH: QVQLVQSGAEVKKPGSSVKVSCKASGGTFSSYAISWVRQAPGQGLEWMGGIIPIFGTANYAQKFQGRVTITADESTSTAYMELSSLRSEDTAVYYCARDFLSQFSWLDYWGQGTLVTVSS
VL: EIVLTQSPGTLSLSPGERATLSCRASQSVSSSYLAWYQQKPGQAPRLLIYGASSRATGIPDRFSGSGSGTDFTLTISRLEPEDFAVYYCQQSSGFPLTFGQGTKVEIK
notes: Soluble Fab-His
With B9, the “Fab Binding” value in assay [1] is 2e+06 relative chemiluminescence units. The fold above background in assay [2] is at least 6 fold.

B10: Fab F68 (VH H62, VL L62) (Fab, V domains shown)
VH: QVQLVQSGAEVKKPGSSVKVSCKASGGTFSSYGISWVRQAPGQGLEWMGGIIPIFGTTNYAQKFQGRVTITADESTSTAYMELSSLRSEDTAVYYCARDWWVTDILDYWGQGTLVTVSS
VL: EIVLTQSPGTLSLSPGERATLSCRASQSVSSSYLAWYQQKPGQAPRLLIYGASSRATGIPDRFSGSGSGTDFTLTISRLEPEDFAVYYCQQSNTNPLTFGQGTKVEIK
notes: Soluble Fab-His
Take B10: the “Fab Binding” value in assay [1] was 1.8e+06 relative chemiluminescence units. In addition, the fold above background in assay [2] was at least 6 fold.

B11: Fab F93 (VH H86, VL L79) (Fab, V domains shown)
VH: QVQLVQSGAEVKKPGSSVKVSCKASGGTFSSYAISWVRQAPGQGLEWMGGIIPIFGTANYAQKFQGRVTITADESTSTAYMELSSLRSEDTAVYYCARDTFWFTVFDYWGQGTLVTVSS
VL: EIVLTQSPGTLSLSPGERATLSCRASQSVSSSYLAWYQQKPGQAPRLLIYGASSRATGIPDRFSGSGSGTDFTLTISRLEPEDFAVYYCQQSNTLPLTFGQGTKVEIK
notes: Soluble Fab-His
In the case of B11, in assay [1], the “Fab Binding” value was 1.6e+06 relative chemiluminescence units. In assay [2], the fold above background was at least 6 fold.

B12: Fab F78 (VH H73, VL L73) (Fab, V domains shown)
VH: QVQLVQSGAEVKKPGSSVKVSCKASGGTFSSYAISWVRQAPGQGLEWMGGIIPIFGTANYAQKFQGRVTITADESTSTAYMELSSLRSEDTAVYYCARGTFTYDFLDYWGQGTLVTVSS
VL: EIVLTQSPGTLSLSPGERATLSCRASQSVSSSYLAWYQQKPGQAPRLLIYGASSRATGIPDRFSGSGSGTDFTLTISRLEPEDFAVYYCQQSSRFPWTFGQGTKVEIK
notes: Soluble Fab-His
In the case of B12, the “Fab Binding” value in assay [1] is 1.9e+06 relative chemiluminescence units. In assay [2], the fold above background was at least 6 fold.

B13: Fab F118 (VH H111, VL L104) (Fab, V domains shown)
VH: QVQLVQSGAEVKKPGSSVKVSCKASGGTFSSYGISWVRQAPGQGLEWMGGIIPIFGTANYAQKFQGRVTITADESTSTAYMELSSLRSEDTAVYYCARDDLPLGMLDYWGQGTLVTVSS
VL: EIVLTQSPGTLSLSPGERATLSCRASQSVSSSYLAWYQQKPGQAPRLLIYGASSRATGIPDRFSGSGSGTDFTLTISRLEPEDFAVYYCQQYTAFPLTFGQGTKVEIK
notes: Soluble Fab-His; converted to mAb B11
As to B13, in assay [1], the “Fab Binding” value was 2.6e+06 relative chemiluminescence units. Moreover, the fold above background in assay [2] is at least 6 fold.

B14: Fab F128 (VH H127, VL L111) (Fab, V domains shown)
VH: QVQLVQSGAEVKKPGSSVKVSCKASGGTFSSYAISWVRQAPGQGLEWMGGIIPIFGNANYAQKFQGRVTITADESTSTAYMELSSLRSEDTAVYYCARGFVNFSRLDYWGQGTLVTVSS
VL: EIVLTQSPGTLSLSPGERATLSCRASQSVSSSYLAWYQQKPGQAPRLLIYGASSRATGIPDRFSGSGSGTDFTLTISRLEPEDFAVYYCQQDSAFPWTFGQGTKVEIK
notes: Soluble Fab-His
Take B14: the “Fab Binding” value in assay [1] is 1.8e+06 relative chemiluminescence units. Further, the fold above background in assay [2] was at least 6 fold.

B15: Fab F122 (VH H119, VL L108) (Fab, V domains shown)
VH: QVQLVQSGAEVKKPGSSVKVSCKASGGTFSSYAISWVRQAPGQGLEWMGGIIPIFGTANYAQKFQGRVTITADESTSTAYMELSSLRSEDTAVYYCARDGVTTYDYFDYWGQGTLVTVSS
VL: EIVLTQSPGTLSLSPGERATLSCRASQSVSSSYLAWYQQKPGQAPRLLIYGASSRATGIPDRFSGSGSGTDFTLTISRLEPEDFAVYYCQQSSRYPWTFGQGTKVEIK
notes: Soluble Fab-His
Consider B15, for which, in assay [1], the “Fab Binding” value is 1.9e+06 relative chemiluminescence units. Also, the fold above background in assay [2] was at least 6 fold.

B16: Fab F63 (VH H55, VL L57) (Fab, V domains shown)
VH: QVQLVQSGAEVKKPGSSVKVSCKASGGTFSSYGISWVRQAPGQGLEWMGGIIPIFGTANYAQKFQGRVTITADESTSTAYMELSSLRSEDTAVYYCARRDGNYLHVDHFDYWGQGTLVTVSS
VL: EIVLTQSPATLSLSPGERATLSCRASQSVASALAWYQQKPGQAPRLLIYKASNRATGIPARFSGSGSGTDFTLTISSLEPEDFAVYYCQQGGNWPWTFGQGTKVEIK
notes: Soluble Fab-His
For the molecule B16, in assay [1], the “Fab Binding” value was 980000 relative chemiluminescence units. Further, in assay [2], the fold above background is at least 6 fold.

B17: Fab F5 (VH H4, VL L4) (Fab, V domains shown)
VH: EVQLVQSGAEVKKPGESLKISCKGSGYSFTSYWIGWVRQMPGKGLEWMGIIYPGDSDTRYSPSFQGQVTISADKSISTAYLQWSSLKASDTAMYYCARNWSEALYVVFDYWGQGTLVTVSS
VL: EIVLTQSPATLSLSPGERATLSCRASQSVANFLAWYQQKPGQAPRLLIYYASNRATGIPARFSGSGSGTDFTLTISSLEPEDFAVYYCQQYFSAPFTFGQGTKVEIK
notes: Soluble Fab-His; converted to mAb B1
Consider B17, for which the “Fab Binding” value in assay [1] is 3.8e+06 relative chemiluminescence units. In addition, in assay [2], the fold above background is at least 6 fold.

B18: Fab F69 (VH H63, VL L63) (Fab, V domains shown)
VH: QVQLVQSGAEVKKPGSSVKVSCKASGGTFSSYAISWVRQAPGQGLEWMGGIIPIFGTANYAQKFQGRVTITADESTSTAYMELSSLRSEDTAVYYCARDDDVNSLASYPLDYWGQGTLVTVSS
VL: EIVLTQSPATLSLSPGERATLSCRASQSVSKALAWYQQKPGQAPRLLIYYASNRATGIPARFSGSGSGTDFTLTISSLEPEDFAVYYCQQYKNAPRTFGQGTKVEIK
notes: Soluble Fab-His
Regarding B18, the “Fab Binding” value in assay [1] was 2e+06 relative chemiluminescence units. Moreover, the fold above background in assay [2] is at least 6 fold.

B19: Fab F74 (VH H68, VL L68) (Fab, V domains shown)
VH: QVQLVQSGAEVKKPGSSVKVSCKASGGTFSSYAISWVRQAPGQGLEWMGGIIPIFGTANYAQKFQGRVTITADESTSTAYMELSSLRSEDTAVYYCARDGDVNSVYSSGLDYWGQGTLVTVSS
VL: EIVLTQSPATLSLSPGERATLSCRASQSVNKFLAWYQQKPGQAPRLLIYFASNRATGIPARFSGSGSGTDFTLTISSLEPEDFAVYYCQQYNHAPFTFGQGTKVEIK
notes: Soluble Fab-His
For B19, in assay [1], the “Fab Binding” value is 1.7e+06 relative chemiluminescence units. The fold above background in assay [2] is at least 6 fold.
